Target: biotinylated Mtb DnaB (Mycobacterium tuberculosis)
Experiment: BLI; Octet RED96; 200 nM biotinylated DnaB loaded on streptavidin biosensors, DciAMtb in solution at varying concentrations, 300 s association and 300 s dissociation; 150 mM NaCl, 0.02% Tween-20, 0.1% BSA, 10 mM NaPO4 pH 8; double reference subtracted; global fit, 1:1 kinetic binding model

## DciAMtb, purified recombinant, untagged (from UniProt P9WFL1 1-187) (natural protein)
  Kd: 0.211 µM

Source: article PMC5720831
